B1: SNAP91 (parent)
chain: FSTDAFSSPPQGASPVPESSLTAD
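Further: lentivirally expressed fusions sorted by FACS into six bins by GFP to DsRed ratio, PSI derived from sequencing read proportions per bin multiplied by bin number.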

Variants of B1 are the subject of this data set. Put plainly: protein stability index of a GFP-peptide fusion (GPS, HEK-293T) (PSI 1-6); higher = more stable. The conditions noted are these: c terminus: a fixed tail appended.
As for FSTDAFSSPPQGASPVPESSLTAH, the protein stability index was found to be 2.42.
The result for FSTDAFSSPPQGASPVPESSLTAW reads 1.87; that for FSTDAFSSPPQGASPVPESSLTAG, 2.75; that for FSTDAFSSPPQGASPVPESSLTAY, 2.25.
Next, FSTDAFSSPPQGASPVPESSLTAE: 3.02; FSTDAFSSPPQGASPVPESSLTAQ: 3.01.
Next, FSTDAFSSPPQGASPVPESSLTAK: 3.18; FSTDAFSSPPQGASPVPESSLTAL: 3.07.
Take FSTDAFSSPPQGASPVPESSLTAT: the protein stability index worked out at 2.89.
Next, FSTDAFSSPPQGASPVPESSLTAA: 3.03; FSTDAFSSPPQGASPVPESSLTAM: 3.19.
Next, FSTDAFSSPPQGASPVPESSLTAS: 2.78.
Next, FSTDAFSSPPQGASPVPESSLTAI: 2.92; FSTDAFSSPPQGASPVPESSLTAR: 3.49.
On to FSTDAFSSPPQGASPVPESSLTAV, for which the protein stability index came to 2.18.
For FSTDAFSSPPQGASPVPESSLTAF, the protein stability index worked out at 2.12.
Next, FSTDAFSSPPQGASPVPESSLTAN: 2.62; FSTDAFSSPPQGASPVPESSLTAC: 2.83.
With FSTDAFSSPPQGASPVPESFLTAD, the protein stability index turned out to be 2.68.
Next, FSTDAFSSPPQGASPVPESELTAD: 3.49; FSTDAFSSPPQGASPVPESMLTAD: 2.98.
The result for FSTDAFSSPPQGASPVPESHLTAD reads 3.04.
Next, FSTDAFSSPPQGASPVPESGLTAD: 3.04.
Consider FSTDAFSSPPQGASPVPESPLTAD, for which the protein stability index was 2.46.
With FSTDAFSSPPQGASPVPESKLTAD, the protein stability index stood at 3.09.
Next, FSTDAFSSPPQGASPVPESLLTAD: 2.72; FSTDAFSSPPQGASPVPESTLTAD: 3.47.
The result for FSTDAFSSPPQGASPVPESQLTAD reads 3.04; that for FSTDAFSSPPQGASPVPESDLTAD, 3.48.
Next, FSTDAFSSPPQGASPVPESYLTAD: 2.93.
In the case of FSTDAFSSPPQGASPVPESWLTAD, the protein stability index is 2.52.
The result for FSTDAFSSPPQGASPVPESCLTAD reads 3.18.
Next, FSTDAFSSPPQGASPVPESVLTAD: 2.77; FSTDAFSSPPQGASPVPESILTAD: 2.81; FSTDAFSSPPQGASPVPESRLTAD: 3.13.
Next, FSTDAFSSPPQGASPVPESNLTAD: 3.38; FSTDAFSSPPQGASPVPESALTAD: 3.56.
As to FSTDAFSSPPQGASPVPESSVTAD, the protein stability index is 3.39.
The result for FSTDAFSSPPQGASPVPESSKTAD reads 3.12; that for FSTDAFSSPPQGASPVPESSPTAD, 3.33; that for FSTDAFSSPPQGASPVPESSDTAD, 3.86.
Next, FSTDAFSSPPQGASPVPESSNTAD: 3.39; FSTDAFSSPPQGASPVPESSQTAD: 3.53.
The result for FSTDAFSSPPQGASPVPESSWTAD reads 2.92.
In the case of FSTDAFSSPPQGASPVPESSTTAD, the protein stability index worked out at 3.45.
The result for FSTDAFSSPPQGASPVPESSRTAD reads 3.11; that for FSTDAFSSPPQGASPVPESSYTAD, 2.81; that for FSTDAFSSPPQGASPVPESSFTAD, 3.1.
Regarding FSTDAFSSPPQGASPVPESSGTAD, the protein stability index was 3.14.
Next, FSTDAFSSPPQGASPVPESSETAD: 4.1; FSTDAFSSPPQGASPVPESSCTAD: 3.38.
The result for FSTDAFSSPPQGASPVPESSATAD reads 3.44.
The result for FSTDAFSSPPQGASPVPESSMTAD reads 3.11; that for FSTDAFSSPPQGASPVPESSHTAD, 3.47; that for FSTDAFSSPPQGASPVPESSITAD, 3.01.
FSTDAFSSPPQGASPVPESSSTAD: the protein stability index is 3.58.
Next, FSTDAFSSPPQGASPVTESSLTAD: 2.83; FSTDAFSSPPQGASPVLESSLTAD: 3.23; FSTDAFSSPPQGASPVVESSLTAD: 3.25.
The result for FSTDAFSSPPQGASPVWESSLTAD reads 2.41.
The result for FSTDAFSSPPQGASPVNESSLTAD reads 3.52; that for FSTDAFSSPPQGASPVRESSLTAD, 3.31; that for FSTDAFSSPPQGASPVYESSLTAD, 2.69.
As to FSTDAFSSPPQGASPVMESSLTAD, the protein stability index worked out at 3.13.
Next, FSTDAFSSPPQGASPVQESSLTAD: 3.21.
The result for FSTDAFSSPPQGASPVSESSLTAD reads 3.86; that for FSTDAFSSPPQGASPVPESSLTQD, 3.91.
Next, FSTDAFSSPPQGASPVPESSLTGD: 3.09; FSTDAFSSPPQGASPVPESSLTMD: 2.97.
As to FSTDAFSSPPQGASPVPESSLTSD, the protein stability index amounted to 2.94.
The result for FSTDAFSSPPQGASPVPESSLTLD reads 3.23; that for FSTDAFSSPPQGASPVPESSLTPD, 2.8; that for FSTDAFSSPPQGASPVPESSLTVD, 2.96.
The result for FSTDAFSSPPQGASPVPESSLTDD reads 3.36; that for FSTDAFSSPPQGASPVPESSLTKD, 3.49; that for FSTDAFSSPPQGASPVPESSLTHD, 2.85.
The result for FSTDAFSSPPQGASPVPESSLTFD reads 3.01.
Regarding FSTDAFSSPPQGASPVPESSLTRD, the protein stability index was determined as 2.96.
Next, FSTDAFSSPPQGASPVPESSLTWD: 2.65; FSTDAFSSPPQGASPVPESSLTED: 3.35; FSTDAFSSPPQGASPVPESSLTID: 3.08.
The result for FSTDAFSSPPQGASPVPESSLTTD reads 3.35.
As for FSTDAFSSPPQGASPVPESSLTCD, the protein stability index turned out to be 2.23.
The result for FSTDAFSSPPQGASPVPESSLTND reads 3.5; that for FSTDAFSSPPQGASPVPVSSLTAD, 3.05.
As to FSTDAFSSPPQGASPVPKSSLTAD, the protein stability index was found to be 2.51.
Next, FSTDAFSSPPQGASPVPHSSLTAD: 2.69.
The result for FSTDAFSSPPQGASPVPRSSLTAD reads 2.65; that for FSTDAFSSPPQGASPVPFSSLTAD, 2.45; that for FSTDAFSSPPQGASPVPQSSLTAD, 3.12.
Turning to FSTDAFSSPPQGASPVPWSSLTAD, the protein stability index is 2.26.
Next, FSTDAFSSPPQGASPVPGSSLTAD: 3.05; FSTDAFSSPPQGASPVPSSSLTAD: 3.19.
Next, FSTDAFSSPPQGASPVPLSSLTAD: 2.42.

(Values after the supplement of paper PMC10567573.)
